From paper PMC8805025

tested on: CcNsdD2-C (C-terminal DNA-binding domain of CcNsdD2) (Coprinopsis cinerea AmutBmut (pab1-1)), ORF:b1e54c23; experiment: EMSA; details: EMSA: 30 uL, 1x EMSA binding buffer (composition not given), 1.5 ug salmon sperm DNA, 50 ng probe, 4 ug CcNsdD2-C, 37 C 30 min; 5% PAGE in 1x TBE pH 8.3
Sequence (chain, as listed by the source): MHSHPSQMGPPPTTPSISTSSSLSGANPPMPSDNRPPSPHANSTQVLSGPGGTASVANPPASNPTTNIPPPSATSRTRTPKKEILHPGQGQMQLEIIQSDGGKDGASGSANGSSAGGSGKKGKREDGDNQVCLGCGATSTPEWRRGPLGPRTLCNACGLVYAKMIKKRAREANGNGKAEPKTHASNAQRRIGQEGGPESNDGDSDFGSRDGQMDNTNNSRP

binding, binds:
AGCACGTGGTCGAAAGCCGTGGTTGGGCAGATGTGGTGGGTGAAGATCGGCAAAAATAACAGGACGCGATCTATGAAAAGTCACGGATTCGCGAAGGGGGCAAATAGATCGCGTAGGAGCAAAAGGCGTGTGCATCGCGCGCTTTGGTTACTTTCGACCACGTGCT (double strand) [cfs1 promoter probe]
AGCACGTGGTCGAAAGCGTACTGTGGAGCAGGGAGAACGTTTGAAGATACCGAAGAAGCATCGGCTAGACCAAATCAAGCAGATCGGTGTACAGATATAGAATGTTTAGCTTGTTATTCGGTTCCAAGGAATACAGTCACAGCTCAGGAGCTTTCGACCACGTGCT (double strand) [hyd1 promoter probe]
AGCACGTGGTCGAAAGGAAGTTGCTGTATACTCGATGACACTCAAGAGTGAGAGGGTTTCGGCCCGTGAGAGTTTCAAGCGGAGATCAAAAGCGATACAGTGATTAGATTAAAACAACGAGTAGATAAGATGGAGATCTTTCGACCACGTGCT (double strand) [cfs2 promoter probe]
AGCACGTGGTCGAAAGTCAGACGAAATCGCCGATTCGCCGAACTCAAGGCCAAATGCATTTTAAACTCCGATCTCGGTGGGTCGCTCACCGATAGATCTCAAAACGATTTCGTTTCTGTGACGAGCATGGCTTCGACGCATTATCCAACGGCTCCTTTCGACCACGTGCT (double strand) [nsdD1 promoter probe]
AGCACGTGGTCGAAAGTTCGCAATTTCATTGCATCCCTGAGCCACCTGACCACCGGAGATCGCTGAATATTGCTTGGGCCAGATATGACCAGAGTTAGCTTGATAGATCGGCATCCCCAATGACGGAGATGAAGTCGGAAGAGCCGAATCCTTTCGACCACGTGCT (double strand) [cgl1 promoter probe]
